The supplement of paper PMC9233669
Fewer inactive variants are shown than the library holds.

How the values were obtained:
biotinyl-Phe-oxazolone = assay: self-aminoacylation, catalytic enhancement (BFO) (fold over background); higher = more active; k-Seq, kA / k0A0; sequences stand for … in GGGAAUGGAUCCACAUCUACGAAUUC…UUCACUGCAGACUUGACGAAGCUG
In short: (§1)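 Working in 50 μL HEPES/NaCl/KCl/MgCl2/CaCl2 buffer with 5% acetonitrile at pH 6.9–7.0, mutagenized RNA pools (0.43 μM; 21-nt variable region) were reacted with 2–1250 μM of each biotinyl-aminoacyl-oxazolone for 90 minutes at room temperature. Streptavidin capture followed, with quantification by triplicate qPCR and Illumina sequencing. Catalytic enhancement is reported as median kA over the uncatalyzed rate, the low-activity peak of a bimodal Gaussian fit to the data.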

biotinyl-Met-oxazolone = assay: self-aminoacylation, catalytic enhancement (BMO) (fold over background); higher = more active; k-Seq, kA / k0A0; sequences stand for … in GGGAAUGGAUCCACAUCUACGAAUUC…UUCACUGCAGACUUGACGAAGCUG
In short: as §1

biotinyl-Trp-oxazolone = assay: self-aminoacylation, catalytic enhancement (BWO) (fold over background); higher = more active; k-Seq, kA / k0A0; sequences stand for … in GGGAAUGGAUCCACAUCUACGAAUUC…UUCACUGCAGACUUGACGAAGCUG
In short: as §1

biotinyl-Leu-oxazolone = assay: self-aminoacylation, catalytic enhancement (BLO) (fold over background); higher = more active; k-Seq, kA / k0A0; sequences stand for … in GGGAAUGGAUCCACAUCUACGAAUUC…UUCACUGCAGACUUGACGAAGCUG
In short: as §1

biotinyl-Val-oxazolone = assay: self-aminoacylation, catalytic enhancement (BVO) (fold over background); higher = more active; k-Seq, kA / k0A0; sequences stand for … in GGGAAUGGAUCCACAUCUACGAAUUC…UUCACUGCAGACUUGACGAAGCUG
In short: as §1

biotinyl-Ile-oxazolone = assay: self-aminoacylation, catalytic enhancement (BIO) (fold over background); higher = more active; k-Seq, kA / k0A0; sequences stand for … in GGGAAUGGAUCCACAUCUACGAAUUC…UUCACUGCAGACUUGACGAAGCUG
In short: as §1

Sequence	self-aminoacylation (biotinyl-Phe-oxazolone)	self-aminoacylation (biotinyl-Met-oxazolone)	self-aminoacylation (biotinyl-Trp-oxazolone)	self-aminoacylation (biotinyl-Leu-oxazolone)	self-aminoacylation (biotinyl-Val-oxazolone)	self-aminoacylation (biotinyl-Ile-oxazolone)
CCCCACUUCAAGCAAUCGGUG [Fam1B.1 aminoacylation ribozyme variant]	75.4	11	12.5	13.9	7.84	6.57
CCCCACUUCAAGCAAUCGGUU [Fam1B.1 aminoacylation ribozyme variant]	12.7	3.35	16.9	4.7	3.68	2.66
CCCCACUUCAAGCAAUCGUUC [Fam1B.1 aminoacylation ribozyme variant]	1.77	0.697	1.12	0.697	0.849	0.898
CCCCACUUCACGCAAUCGGUC [Fam1B.1 aminoacylation ribozyme variant]	7.33	2.31	4.55	2.44	2.61	2.06
CCCCACUUCAGGCAAUCGGUC [Fam1B.1 aminoacylation ribozyme variant]	9.29	2.35	5.21	2.63	2.64	2.56
CCGCACUACAAGCAAUCGGUC [Fam1B.1 aminoacylation ribozyme variant]	1.55	0.932	1.36	1.02	1.32	1.33
CCGCACUUCAACCAAUCGGUC [Fam1B.1 aminoacylation ribozyme variant]	148	2.05	67.5	3.41	2.38	2.09
CCGCACUUCAAGCAAUCGGAC [Fam1B.1 aminoacylation ribozyme variant]	1.31	1	1.86	0.812	1.12	1.07
CCGCACUUCAAGCGAUCGGUC [Fam1B.1 aminoacylation ribozyme variant]	2.22	1.53	4.81	1.3	1.8	1.34
CCUAACUUCAAGCAAUCGGUC [Fam1B.1 aminoacylation ribozyme variant]	46.5	1.02	19.9	1.54	1.01	1.18
CCUCACUCCAAGCAAUCGGUC [Fam1B.1 aminoacylation ribozyme variant]	5.18	0.767	2.39	0.915	0.947	1.03
CCUCACUGCAAGCAAUCGGUC [Fam1B.1 aminoacylation ribozyme variant]	1.44	0.832	1.17	1.24	1.41	1.26
CCUCACUUCAAGGAAUCGGUC [Fam1B.1 aminoacylation ribozyme variant]	6.28	0.946	4.27	0.936	0.869	0.76
CCUCACUUCAUGCAAUCGGUC [Fam1B.1 aminoacylation ribozyme variant]	1.17	0.642	0.804	0.735	0.773	0.734
CCUCAUUUCAAGCAAUCGGUC [Fam1B.1 aminoacylation ribozyme variant]	5.96	1.07	2.75	1.08	1.05	1.11
CCUGACUUCAAGCAAUCGGUC [Fam1B.1 aminoacylation ribozyme variant]	45.6	1.17	23.1	1.63	1.35	1.22
CCUUACUUCAAGCAAUCGGUC [Fam1B.1 aminoacylation ribozyme variant]	31.6	1.06	13	1.3	1.08	1.09
CGACACUCCAAGCAAUCGGUC [Fam1B.1 aminoacylation ribozyme variant]	0.914	0.665	1.19	0.842	1.11	1.11
CGACACUUCAAGCAAUUGGUC [Fam1B.1 aminoacylation ribozyme variant]	0.985	0.864	0.777	0.668	0.718	0.908
CGACACUUCAAGCACUCGGUC [Fam1B.1 aminoacylation ribozyme variant]	1.46	1.38	2	1.3	1.32	1.28
CGACACUUCAAGCAGUCGGUC [Fam1B.1 aminoacylation ribozyme variant]	1.04	1.64	1.74	1.23	0.99	1.25
CGACACUUCAAGUAAUCGGUC [Fam1B.1 aminoacylation ribozyme variant]	3.36	1.5	2.28	1.16	1.47	1.69
CGACACUUCAAUCAAUCGGUC [Fam1B.1 aminoacylation ribozyme variant]	14.7	0.958	7.59	1.15	1.05	1.04
CGACACUUCAUGCAAUCGGUC [Fam1B.1 aminoacylation ribozyme variant]	1.34	0.971	0.973	0.932	1.17	1.05
CGACACUUCGAGCAAUCGGUC [Fam1B.1 aminoacylation ribozyme variant]	1.37	1.28	0.998	1.18	1.4	1.24
CGACUCUUCAAGCAAUCGGUC [Fam1B.1 aminoacylation ribozyme variant]	3.23	1.02	3.07	0.86	1.32	1.22

Sequence	self-aminoacylation (biotinyl-Phe-oxazolone)	self-aminoacylation (biotinyl-Met-oxazolone)	self-aminoacylation (biotinyl-Trp-oxazolone)	self-aminoacylation (biotinyl-Leu-oxazolone)	self-aminoacylation (biotinyl-Val-oxazolone)	self-aminoacylation (biotinyl-Ile-oxazolone)
CGACUUCAAACAAUCCGUCUG [Fam1A.1 aminoacylation ribozyme variant]	2.5	1.23	1.72	1.07	1.18	1.27
CGACUUCAAACAAUCGCUCUG [Fam1A.1 aminoacylation ribozyme variant]	3.61	1.36	3.07	1.42	1.24	1.42
CGACUUCAAACAAUCGGCCUG [Fam1A.1 aminoacylation ribozyme variant]	277	3.62	95.7	6.69	4.06	3.29
CGACUUCAAACAAUCGGUCAG [Fam1A.1 aminoacylation ribozyme variant]	8.58	0.707	4.08	0.772	0.883	0.915
CGACUUCAAACAAUCGGUCGG [Fam1A.1 aminoacylation ribozyme variant]	9.34	1.99	5.43	2.68	2.08	2.47
CGACUUCAAACAGUCGGUCUG [Fam1A.1 aminoacylation ribozyme variant]	10	1.71	1.98	1.63	1.84	1.83
CGACUUCAAACGAUCGGUCUG [Fam1A.1 aminoacylation ribozyme variant]	1.8	1.31	2.1	1.41	1.13	1.05
CGACUUCACACAAUCGGUCUG [Fam1A.1 aminoacylation ribozyme variant]	1.07	0.934	1.01	1.23	1.14	1.05
CGACUUCUAACAAUCGGUCUG [Fam1A.1 aminoacylation ribozyme variant]	0.961	0.936	0.591	0.917	0.931	0.905
CGAUUUCAAACAAUCGGUCUG [Fam1A.1 aminoacylation ribozyme variant]	16.4	1.46	5.97	1.63	1.66	1.74
CGGUUUGCUAAUAGUCGCAAG [Fam3.1 aminoacylation ribozyme variant]	2.27	1.17	1.68	1.17	1.18	1.18
CUAAACUUCAAGCAAUCGGUC [Fam1B.1 aminoacylation ribozyme variant]	33.1	0.876	15.1	1.26	1.03	0.956
CUAAUUAAAACAAUCGGUCUG [Fam1A.1 aminoacylation ribozyme variant]	0.555	0.827	0.564	0.782	0.738	0.791
CUAAUUCAAACAAUCAGUCUG [Fam1A.1 aminoacylation ribozyme variant]	3.65	0.702	1.44	0.674	0.772	0.659
CUAAUUCAAACAAUCGGUCUU [Fam1A.1 aminoacylation ribozyme variant]	2.49	0.695	1.32	0.629	0.716	0.743
CUAAUUCAAACAAUCGGUGUG [Fam1A.1 aminoacylation ribozyme variant]	0.924	0.913	0.691	1.01	0.659	0.75
CUAAUUCAAACAAUGGGUCUG [Fam1A.1 aminoacylation ribozyme variant]	0.481	0.777	0.468	0.643	0.739	0.742
CUAAUUCAAACAAUUGGUCUG [Fam1A.1 aminoacylation ribozyme variant]	0.608	0.776	0.572	0.744	0.687	0.839
CUAAUUCACACAAUCGGUCUG [Fam1A.1 aminoacylation ribozyme variant]	0.759	0.874	0.598	0.85	0.771	0.912
CUACACCUAGGUCAUCGGGUG [Fam2.2 aminoacylation ribozyme variant]	3.13	2.27	2.08	2.12	1.72	1.72
CUACACCUCAAGCAAUCGGUC [Fam1B.1 aminoacylation ribozyme variant]	2.14	0.869	1.41	0.8	0.976	1.01
CUACACUUCAAACAAUCGGUC [Fam1B.1 aminoacylation ribozyme variant]	88.2	1.34	39	2.08	1.27	1.22
CUACACUUCAAGCAAUAGGUC [Fam1B.1 aminoacylation ribozyme variant]	1.06	0.44	0.506	0.527	0.585	0.542
CUACACUUCAAGCAAUCAGUC [Fam1B.1 aminoacylation ribozyme variant]	21	0.718	6.32	0.754	0.886	0.668
CUACACUUCAAGCAAUCGAUC [Fam1B.1 aminoacylation ribozyme variant]	2.02	0.404	0.769	0.458	0.649	0.527
